# Test results as given in PMC8897147.
# Molecular target: SV1, splice variant of GHRHR, -Rluc8
# Assay: FRET or BRET
# Sequence of SV1, splice variant of GHRHR, -Rluc8 (Q02643 23-423, change not shown): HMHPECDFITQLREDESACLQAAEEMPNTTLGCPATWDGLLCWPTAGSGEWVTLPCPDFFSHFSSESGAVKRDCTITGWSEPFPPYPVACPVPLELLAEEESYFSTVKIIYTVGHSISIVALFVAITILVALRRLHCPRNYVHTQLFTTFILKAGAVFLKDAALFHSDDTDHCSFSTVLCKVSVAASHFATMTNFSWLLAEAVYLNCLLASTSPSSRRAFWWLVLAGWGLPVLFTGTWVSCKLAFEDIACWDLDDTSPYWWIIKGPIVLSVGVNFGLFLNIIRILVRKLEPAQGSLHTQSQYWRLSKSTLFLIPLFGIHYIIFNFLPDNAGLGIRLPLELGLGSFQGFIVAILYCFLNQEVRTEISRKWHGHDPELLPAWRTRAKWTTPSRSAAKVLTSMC
# Sequence of RAMP2-Ypet (receptor activity-modulating protein 2) (O60895 43-175): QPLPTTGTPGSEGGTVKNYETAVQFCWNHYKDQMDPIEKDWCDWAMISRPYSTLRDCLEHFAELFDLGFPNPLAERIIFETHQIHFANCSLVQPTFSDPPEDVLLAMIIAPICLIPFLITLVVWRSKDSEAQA
row,BRET50 (Kd) (intensity ratio of RAMP:receptor),Substance
1,4.4,RAMP1-Ypet (receptor activity-modulating protein 1) (from UniProt O60894 27-148) (natural protein)
2,2.36,RAMP2-Ypet (receptor activity-modulating protein 2) (from UniProt O60895 43-175) (natural protein)
